Source: the supplement of paper PMC6755084

B1: minF1; a variant is named by its letters at N, in order (parent)
chain: GAGACCGCAACTGAAAAGTTGTTNNNNAANNNNGGNTNNATTTCTGCACGTAGAAGCAAAAGGC

Variants of: B1
Test: fraction ligated after 30 min (ligated reads / total reads); higher = more ligase activity
Details: with F1*subA RNA substrate (template-directed ligation), 42 °C
Description: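 Chip-synthesised pool of minF1 ligase ribozyme variants (single and double substitutions, single to quadruple deletions, bulge and P2 designed variants) was transcribed with T7 and reacted as a pool with excess substrate F1*subA for 30 min at 42 C in 50 mM EPPS pH 8.5, 25 mM MgCl2. Ligated and unligated RNAs were separated by PAGE, barcoded by RT and deep sequenced; fraction ligated = ligated reads / total reads, relative activity = FL / FL of wild-type minF1 (0.76); sequencing FL correlated with PAGE (R2 = 0.98). Sequences are the DNA template of the ribozyme.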

First: ATAGAGGAGTA
Second: TCAGGATGTGA A29G
The fraction ligated of the first is higher: 0.00256 for the first, 0.00144 for the second.

First: CAGATGGATGA
Second: ATCATGGATGA
The fraction ligated of the first is higher: 0.00376 for the first, 0.00299 for the second.

Going from TAGATGGATGA T23A to TCAGTGGAGTA T23A G34T, the fraction ligated rises from 0.00368 to 0.0212.

First: CAGAGATGTGA T23A
Second: ATCAGATGTGA A28G A29G
The fraction ligated of the first is lower: 0.00241 for the first, 0.00309 for the second.

First: TCAGATGGGTT G34A G35T T37G A40G
Second: CGAAGATGTGA A28T A29G
The fraction ligated of the first is lower: 0.000594 for the first, 0.00384 for the second.

First: TCAATGGAGTG
Second: CGAAGGATTGA T23A A29T
The fraction ligated of the first is lower: 0.00581 for the first, 0.0076 for the second.

Compared with TCAATGGGTGA T23A, GAAAGATGTGA A28T A29G is higher in fraction ligated: 0.00158 for the first, 0.00247 for the second.

Going from TCAATATGTGA to ATGATGGAGTA, the fraction ligated rises from 0.00184 to 0.00203.

Going from TAGATGGTGTG T23A to TCAGATGGGTT G34A G35T T37G, the fraction ligated falls from 0.00451 to 0.00107.

First: ATCAGATGTGA A29T
Second: ATCAGATGTGA A29G
The fraction ligated of the first is higher: 0.00586 for the first, 0.0024 for the second.

Compared with ATAGATGGGTT G34A G35T T37G, AAGATGAGTGA is higher in fraction ligated: 0.0013 for the first, 0.00469 for the second.

Going from ACGATGGTGTG to ACGATGGTGTA, the fraction ligated falls from 0.00433 to 0.00204.

Compared with ACAGATGGGTT G34A T37G, AAGATGGAGTG is higher in fraction ligated: 0.00125 for the first, 0.00495 for the second.

Going from ATCGAGGTTGA to TAGAGGAGTGA, the fraction ligated rises from 0.00313 to 0.00669.

First: AAGAGGAGTGA A29T
Second: ACAAGGTGTGA A29T
The fraction ligated of the first is lower: 0.00209 for the first, 0.00256 for the second.

Going from ATAAGGATGTG to ATAAGGATGTA, the fraction ligated falls from 0.00567 to 0.00287.

Compared with ATCAATGATGA A28G, ACAGAGAGTGA is higher in fraction ligated: 0.000976 for the first, 0.00105 for the second.

Compared with ATAGAGTGTGA, ATAGTGGATGA is lower in fraction ligated: 0.00554 for the first, 0.00362 for the second.

First: TAAAGGATGTG A29T
Second: ATAGATGGGTG
The fraction ligated of the first is lower: 0.00445 for the first, 0.00885 for the second.

Going from ATAGATGGGTA to TCGATGGTGTG, the fraction ligated rises from 0.00171 to 0.00467.

Compared with ATGATGGAGTT G34T T37G A40G, CAGATGGTGTG is higher in fraction ligated: 0.0011 for the first, 0.00377 for the second.

Compared with ATCAGGATGTG A28G, AGAAGGAGTGA T23C A29T is lower in fraction ligated: 0.0124 for the first, 0.0019 for the second.

First: ATCATGGAGTT A28G G34T T37G
Second: TCAGGGAGTGA T23A
The fraction ligated of the first is lower: 0.00165 for the first, 0.0029 for the second.

First: TAGATGGAGTG
Second: ATGATGGAGTT G34T T37G
The fraction ligated of the first is higher: 0.00279 for the first, 0.00184 for the second.

Going from ATCAATGAGTT A28G G34T T37G to AAGAGGATGTG A29T, the fraction ligated rises from 0.00246 to 0.00669.

First: ATCAAAGGGTT A28G G34T T37G
Second: ATGATGGAGTA G34T
The fraction ligated of the first is lower: 0.00171 for the first, 0.00469 for the second.

Going from TCAGGGATGTG A29T to TAGATGTGTGA T23A, the fraction ligated falls from 0.00266 to 0.00136.

First: ATCAATGTTGA A28G
Second: ATCAATGGGTG G34A
The fraction ligated of the first is lower: 0.0018 for the first, 0.00542 for the second.

Compared with ATCATGGAGTA G34T, TGAAGGATTGA T23A A29T is lower in fraction ligated: 0.00594 for the first, 0.00566 for the second.

Going from ACAGAGGAGTT G34T T37G A40G to CAGATGGTGTA T23A, the fraction ligated rises from 0.00205 to 0.00242.

Going from ACAATGATGTA to ACAATGATGTG, the fraction ligated rises from 0.00197 to 0.00556.

First: ATGAGATGTGA A29T
Second: TGAAGGATGTA T23A A29T
The fraction ligated of the first is lower: 0.00278 for the first, 0.00285 for the second.

Compared with ATCAAAGAGTA A28G, TCAGAGATTGA is higher in fraction ligated: 0.0017 for the first, 0.00355 for the second.

First: ATCAATGAGTG A28G
Second: TCAATGGTGTG T23A
The fraction ligated of the first is lower: 0.00439 for the first, 0.00466 for the second.

First: ATCAAGGTGTG A28G
Second: ATAGATGGGTT G34T T37G A40G
The fraction ligated of the first is higher: 0.0012 for the first, 0.000495 for the second.

Going from TCAGATGGGTA to TCAGATGGGTG, the fraction ligated rises from 0.000871 to 0.005.

Going from ATCGGGAGTGA A29T to ATCAATGGGTT A28G G34A T37G A40G, the fraction ligated falls from 0.00273 to 0.000541.

First: TCAGGATGTGA
Second: TCAGGGATGTA T23A
The fraction ligated of the first is higher: 0.00269 for the first, 0.00201 for the second.

Compared with TCAGATGAGTT G34T T37G A40G, ATCATGGAGTG A28G is higher in fraction ligated: 0.00127 for the first, 0.00442 for the second.

Going from ATAGGATGTGA A28T A29G to ACAGTGGAGTG, the fraction ligated falls from 0.0105 to 0.00883.

First: ACAGGGATTGA
Second: ACAGATGGGTT G34A G35T T37G A40G
The fraction ligated of the first is higher: 0.00266 for the first, 0.000584 for the second.

Going from TCAGGGTGTGA A29T to TCAGAGGGTGA, the fraction ligated rises from 0.00272 to 0.00299.

Going from CAGAGGATTGA T23A to ATAGTATGTGA, the fraction ligated rises from 0.00223 to 0.00386.

Compared with TAGATGATGTG, TAGATGATGTA is lower in fraction ligated: 0.0051 for the first, 0.00158 for the second.

First: CAAAGGATTGA A29T
Second: ATCAGGTGTGA
The fraction ligated of the first is lower: 0.0034 for the first, 0.00443 for the second.

First: ATCGTGGAGTG G34T
Second: TCAAGGATGTG T23A A29T
The fraction ligated of the first is higher: 0.0139 for the first, 0.0062 for the second.

Compared with TGAAGATGTGA A29T, TAGATGAGTGA T23A is lower in fraction ligated: 0.00283 for the first, 0.00274 for the second.

Going from TCGATGGAGTG to TCAATGGAGTT G34T T37G, the fraction ligated falls from 0.0131 to 0.00235.

Going from ACAGTGGATGA to ATAGAGGGTGA, the fraction ligated falls from 0.00257 to 0.00176.

Going from ACAGGATGTGA A29G to TCAGATGTTGA T23A, the fraction ligated rises from 0.00108 to 0.00154.

First: TAGATGGAGTA T23A G34T
Second: TCAATGATTGA
The fraction ligated of the first is higher: 0.0029 for the first, 0.00117 for the second.

Compared with TCAGTGGAGTG T23A, ATCAGGATGTG is higher in fraction ligated: 0.00892 for the first, 0.00943 for the second.

Going from ATCAAATATGA A28G to TCGATGGATGA, the fraction ligated falls from 0.00291 to 0.00257.

Compared with ATAGATGTTGA, TCAATGGAGTT T23A G34T T37G is lower in fraction ligated: 0.00174 for the first, 0.00105 for the second.

Going from AAGATGATGTA to ATCAAAGGGTG A28G G34A, the fraction ligated rises from 0.00102 to 0.00764.

Going from TCAAGATGTGA T23A A28T A29G to ATCGATGGGTA, the fraction ligated falls from 0.00482 to 0.000742.

First: ATCGATGGGTG
Second: TCAGGGATTGA A29T
The fraction ligated of the first is higher: 0.00493 for the first, 0.00182 for the second.

Compared with ACAGATGGGTG, ATCGATGAGTT G34T T37G A40G is lower in fraction ligated: 0.00567 for the first, 0.00104 for the second.

First: ATCAATGGGGT G34A G35T T37G A40T
Second: ACAGAGGAGTG
The fraction ligated of the first is lower: 0.0016 for the first, 0.00401 for the second.

Going from ACAGAGGAGTA to AGAAGGATTGA T23A A29T, the fraction ligated rises from 0.0028 to 0.00594.

First: ATAGTGGAGTA G34T
Second: AAGAGGTGTGA A29T
The fraction ligated of the first is higher: 0.00645 for the first, 0.00145 for the second.

Compared with ATCAAGGAGTT G34T T37G, ATCGTGGTTGA is lower in fraction ligated: 0.00324 for the first, 0.00112 for the second.

First: ATAATGGAGTA
Second: TAGATGGAGTT T23A G34T T37G A40G
The fraction ligated of the first is higher: 0.00371 for the first, 0.00177 for the second.

Compared with TCAGAGATGTG T23A, ATAAGGATTGA is lower in fraction ligated: 0.00606 for the first, 0.0033 for the second.

Compared with CAGATGTGTGA T23A, AAGAGGTGTGA is higher in fraction ligated: 0.00226 for the first, 0.00286 for the second.

Going from TAGATGGAGTG G34T to CAGAGGATGTA A29T, the fraction ligated falls from 0.0121 to 0.00385.

Compared with TGAAGATGTGA A28T A29G, ATGATGGATGA is lower in fraction ligated: 0.00314 for the first, 0.00302 for the second.

First: TCGAGATGTGA A29T
Second: ATCGAGTGTGA
The fraction ligated of the first is higher: 0.00243 for the first, 0.00242 for the second.

Compared with TAGATGGAGTA G34T, ATCAATGGGTA G34A is lower in fraction ligated: 0.00584 for the first, 0.00177 for the second.

Compared with ATCAAATGGTT A28G T37G A40G, ATCAGGATGTA A28G is higher in fraction ligated: 0.0011 for the first, 0.00247 for the second.

First: ACAATGGAGTA G34T
Second: ACAGATATTGA
The fraction ligated of the first is higher: 0.0117 for the first, 0.0012 for the second.

Compared with ACAGGGTGTGA A29T, ATCAAATGGTT A28G G34T T37G is higher in fraction ligated: 0.000904 for the first, 0.000947 for the second.

Going from ACAGTGATTGA to ATCAAATGGTT A28G G34T T37G A40G, the fraction ligated falls from 0.00326 to 0.000795.

Going from ATCAAGGAGTG to ATCAGATGTGA A28T A29G, the fraction ligated rises from 0.00548 to 0.0131.

Going from TCAGGATGTGA T23A A28T A29G to ATAGTGATTGA, the fraction ligated falls from 0.00354 to 0.00291.

First: ATCAAGGAGTT A28G G34T T37G A40G
Second: ATAGAGGAGTG G34T
The fraction ligated of the first is lower: 0.000656 for the first, 0.0028 for the second.

Going from ATCGATGGGTG G34T to ATCGATGGGTG G34A, the fraction ligated falls from 0.00494 to 0.00444.

Compared with TAGAGGATGTA T23A, ATAGATGAGTT G34T T37G A40G is lower in fraction ligated: 0.00339 for the first, 0.00153 for the second.

Compared with ATGAGATGTGA, TCAGAGGAGTT T23A G34T T37G is lower in fraction ligated: 0.00646 for the first, 0.000421 for the second.

First: TCAATGATTGA T23A
Second: ATCAAGGGTGA A28G
The fraction ligated of the first is lower: 0.00254 for the first, 0.00483 for the second.

First: TCGATATGTGA T23A
Second: CAGATGATTGA
The fraction ligated of the first is higher: 0.00444 for the first, 0.0023 for the second.

Going from ACAGAGGAGTT G34T T37G to ACGATGATGTA, the fraction ligated falls from 0.00192 to 0.00144.

Compared with ACGAGGATTGA, ATAGATGGGTT G34A T37G is lower in fraction ligated: 0.00256 for the first, 0.000508 for the second.

ACAGAGGAGTA G34T was tested, and the fraction ligated was 0.000671.
